pKd: −log10 of the molar value.
Tests used:
Experiment in all cases: MST; labelled JIP3/4 fragment (Blue-NHS dye) constant at 20 nM, KIF5B fragment titrated 120 pM to 4 uM (up to 38.2 uM when needed); 50 mM Tris pH 8.0, 200 mM NaCl, 10 mM MgCl2, 0.05% Tween 20; room temperature; Monolith NT.115, premium capillaries, MST-on 0.5-1.5 s; 1:1 Kd fit; three replicates; the paper calls its affinities relative measurements
[1] = molecular target: JIP4-N-RH1-lz3-G40H-R41C (UniProt O60271)
[2] = molecular target: JIP3-N^JIP4-RH1-lz3 chimera (JIP3 variant incorporating the N-terminus of JIP4) (not stated | mouse)
[3] = molecular target: JIP4-N^JIP3-RH1-lz3 chimera (JIP4 variant incorporating the N-terminus of JIP3) (mouse | not stated)

Sequence of KIF5B-CC3b-CC4-dt fragment (P33176 771-963): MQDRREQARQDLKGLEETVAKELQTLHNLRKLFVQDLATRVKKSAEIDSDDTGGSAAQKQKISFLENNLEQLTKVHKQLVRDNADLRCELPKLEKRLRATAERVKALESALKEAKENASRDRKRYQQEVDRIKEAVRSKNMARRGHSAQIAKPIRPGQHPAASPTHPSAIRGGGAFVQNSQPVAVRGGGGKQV
Sequence of JIP4-N-RH1-lz3-G40H-R41C (O60271 whole entry G40H/R41C): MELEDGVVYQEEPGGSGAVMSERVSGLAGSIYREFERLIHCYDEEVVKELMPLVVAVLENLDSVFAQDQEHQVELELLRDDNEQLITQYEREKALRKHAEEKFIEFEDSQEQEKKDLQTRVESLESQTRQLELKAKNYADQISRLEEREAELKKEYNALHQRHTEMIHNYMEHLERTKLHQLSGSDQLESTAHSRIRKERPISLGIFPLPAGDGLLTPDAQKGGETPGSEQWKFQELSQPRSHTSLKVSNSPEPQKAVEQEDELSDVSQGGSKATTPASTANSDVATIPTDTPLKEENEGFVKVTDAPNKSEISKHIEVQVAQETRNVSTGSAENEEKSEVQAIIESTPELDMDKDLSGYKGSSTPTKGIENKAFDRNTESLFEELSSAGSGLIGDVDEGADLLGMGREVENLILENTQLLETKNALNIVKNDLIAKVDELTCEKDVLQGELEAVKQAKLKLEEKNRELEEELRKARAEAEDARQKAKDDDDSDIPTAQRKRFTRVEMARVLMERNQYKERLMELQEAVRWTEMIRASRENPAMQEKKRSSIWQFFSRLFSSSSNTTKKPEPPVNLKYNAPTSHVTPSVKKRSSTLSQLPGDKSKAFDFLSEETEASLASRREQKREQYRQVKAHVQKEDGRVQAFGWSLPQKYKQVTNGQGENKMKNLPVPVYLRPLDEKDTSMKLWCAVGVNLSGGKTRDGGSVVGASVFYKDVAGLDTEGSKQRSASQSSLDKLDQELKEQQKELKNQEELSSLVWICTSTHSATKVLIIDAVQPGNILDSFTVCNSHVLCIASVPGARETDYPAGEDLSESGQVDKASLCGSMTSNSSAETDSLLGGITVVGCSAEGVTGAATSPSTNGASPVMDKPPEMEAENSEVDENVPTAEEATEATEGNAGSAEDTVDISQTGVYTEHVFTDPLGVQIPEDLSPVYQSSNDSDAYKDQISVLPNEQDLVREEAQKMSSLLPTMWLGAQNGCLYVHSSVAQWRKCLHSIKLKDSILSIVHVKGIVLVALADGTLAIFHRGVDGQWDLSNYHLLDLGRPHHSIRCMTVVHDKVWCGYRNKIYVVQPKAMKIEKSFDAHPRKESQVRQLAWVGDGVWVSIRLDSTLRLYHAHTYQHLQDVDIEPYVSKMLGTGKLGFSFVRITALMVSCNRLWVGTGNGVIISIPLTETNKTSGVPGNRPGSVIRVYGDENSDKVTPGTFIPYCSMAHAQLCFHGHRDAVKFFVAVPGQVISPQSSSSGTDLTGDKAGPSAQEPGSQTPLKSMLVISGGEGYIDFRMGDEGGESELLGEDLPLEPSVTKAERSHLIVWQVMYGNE

pKd [1]: 6.88
pKd [2]: 7.53
pKd [3]: 6.61
Substance: KIF5B-CC3b-CC4-dt fragment (from UniProt P33176 771-963) (domain or fragment)

— publication PMC13499124
